Results from PMC4304707, “Regulation of Oncogene Expression in T-DNA-Transformed Host Plant Cells”.

Target: T1, 6xHis-WRKY40 (Arabidopsis thaliana, UniProt Q9SAH7 1-302)
T1 sequence: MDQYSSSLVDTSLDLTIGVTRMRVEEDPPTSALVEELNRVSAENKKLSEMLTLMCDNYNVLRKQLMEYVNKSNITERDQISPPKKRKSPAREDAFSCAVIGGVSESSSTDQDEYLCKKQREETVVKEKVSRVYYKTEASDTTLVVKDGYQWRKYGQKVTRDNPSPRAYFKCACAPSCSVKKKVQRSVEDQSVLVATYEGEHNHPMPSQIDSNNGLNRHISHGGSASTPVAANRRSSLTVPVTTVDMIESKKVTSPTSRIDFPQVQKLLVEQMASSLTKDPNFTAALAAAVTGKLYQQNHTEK
Assay: EMSA; 150 ng weak band, 300 ng much stronger band; about 5 ng probe; unlabeled probe competitor significantly reduced binding
Conditions: protein: recombinant; tags: N-terminal 6xHis (pET28b, NdeI/XhoI); label: 32P 5' end (T4 PNK); blunt (implied by two complementary oligonucleotides)

B1: Ipt promoter probe (-184 to -135) (dsDNA)
DNA 1: GATTTAGTCAGCCTTATTTGACTTAAGGGTGCCCTCGTTAGTGACAAATT
DNA 2: AATTTGTCACTAACGAGGGCACCCTTAAGTCAAATAAGGCTGACTAAATC
**Q.** Does B1 bind?
**A.** binds
